The results in this text go back to US20190161756, “Anti-Immunoglobulin G Aptamers and Uses Thereof” (Laboratoire Francais du Fractionnement et des …, published 2019).

Common to all, as to conditions: chain copies: 2; label: biotin
Series [1] addresses T1, IgG4 (plasma IgG sub-class) (Homo sapiens, UniProt P01861-1 P01861-1:1-327). In words: SPR; pH 5.5; resistant to 2 M NaCl. The protocol:
(§1) Plasma IgG's sub-classes were injected at pH 5.5 (in duplicates), whereby a complex was formed as evidenced by the increase of the signal. […] The solid support was then regenerated by injection of a solution of NaOH at 50 mM. X-axis: time in s. Y-axis: SPR response in arbitrary scale.
(§2) The selected aptamer was synthetized with Biotin and a triethylene glycol spacer at the 5′ end of the oligonucleotide. A 1 μM solution of the aptamer was prepared using the SELEX selection buffer. The aptamer solution was heated to 90° C. for 5 min, incubated on ice for 5 min and equilibrated to room temperature for 10 min. The preparation was injected on a streptavidin coated sensor chip SA of Biacore T200 instrument (GE Healthcare) at a flow rate of 10 μl/min for 7 min. Then, different concentrations of the target (Human polyclonal IgG, purified from human plasma with a purity of >95%) were injected to the immobilised aptamer at 30 μl/min for 1 minute. After dissociation for 1-2 min a wash step was performed by injecting a suitable wash buffer at 30 μl/min for 1 min. For elution, a suitable elution buffer was injected at 30 μl/min for 1-2 min Finally the sensor chip was regenerated by injection of 50 mM NaOH at 30 μl/min for 30 sec. During the course of the experiment the response signal was recorded in a sensorgram.
A general note: In SPR one partner is held on a chip, and binding of the other changes the refractive index at the surface.

Series [2] has as its target T1, IgG4 (plasma IgG sub-class). In words: SPR; pH 5.5; resistant to 2 M NaCl. This is another data set of the same source.
The target is the same in series [3]. The series is described as follows: SPR; pH 5.5; faster association, partly eluted by 2 M NaCl. How it is done:
as §1, §2

T1 sequence (P01861 other isoform, or with tags, fused parts or gaps): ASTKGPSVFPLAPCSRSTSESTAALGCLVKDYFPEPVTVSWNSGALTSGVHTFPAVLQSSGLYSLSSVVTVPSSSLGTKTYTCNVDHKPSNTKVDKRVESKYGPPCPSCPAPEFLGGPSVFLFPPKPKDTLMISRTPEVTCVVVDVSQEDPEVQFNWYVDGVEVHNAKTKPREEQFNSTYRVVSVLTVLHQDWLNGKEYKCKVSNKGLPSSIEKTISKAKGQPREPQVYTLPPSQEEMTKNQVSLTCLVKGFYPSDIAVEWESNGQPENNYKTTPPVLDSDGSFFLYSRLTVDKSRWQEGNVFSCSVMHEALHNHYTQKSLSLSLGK

B1: A6-8 (ssDNA)
DNA: GGGTCAATGCCAGGTCTCCACGGTATAGTCTCGCCCAGTGCCCTTTGTTGGACTTCCTATCGGCTCGCAAGCAGTC
modifications: 5' biotin-triethylene glycol spacer
Turning to B1, the binding result in series [1] is given as “binds”.

B2: A6-4 (ssDNA)
DNA: GGGTCAATGCCAGGTCTCAAGTTTGTGGGGCTGGGGTTCGGTCCTGGCACAAATTCGTATCGGCTCGCAAGCAGTC
modifications: 5' biotin-triethylene glycol spacer
With B2, the binding result in series [2] is on record as “binds”.

B3: A6-3 (ssDNA)
DNA: GGGTCAATGCCAGGTCTCGACTATTCCTCCGGCCTCTTCCCTAATCAGTGGCATCTCTATCGGCTCGCAAGCAGTC
modifications: 5' biotin-triethylene glycol spacer
Take B3: the binding result in series [3] is “binds”.

B4: A6-2 (ssDNA)
DNA: GGGTCAATGCCAGGTCTCCCCAGCCTCATCTCACGGCATAGTCTCGCCACACTGGAAATCGGCTCGCAAGCAGTC
modifications: 5' biotin-triethylene glycol spacer (SPR); 5' amino-C6 spacer and 3' idT (chromatography)
Consider B4, for which the binding result in series [2] was “binds”.
